Measurements from PMC11074299, “Deciphering DED assembly mechanisms in FADD-procaspase-8-cFLIP complexes regulating apoptosis” (Nature Communications, 2024).

B3: full-length Casp-8 mutant F122G/L123G/C360A/D374A/D384A (natural protein, human, UniProt Q14790 1-479, looked up)
chain: MDFSRNLYDIGEQLDSEDLASLKFLSLDYIPQRKQEPIKDALMLFQRLQEKRMLEESNLSFLKELLFRINRLDLLITYLNTRKEEMERELQTPGRAQISAYRVMLYQISEEVSRSELRSFKGGLQEEISKCKLDDDMNLLDIFIEMEKRVILGEGKLDILKRVCAQINKSLLKIINDYEEFSKERSSSLEGSPDEFSNGEELCGVMTISDSPREQDSESQTLDKVYQMKSKPRGYCLIINNHNFAKAREKVPKLHSIRDRNGTHLDAGALTTTFEELHFEIKPHDDCTVEQIYEILKIYQLMDHSNMDCFICCILSHGDKGIIYGTDGQEAPIYELTSQFTGLKCPSLAGKPKVFFIQAAQGDNYQKGIPVETASEEQPYLEMALSSPQTRYIPDEADFLLGMATVNNCVSYRNPAEGTWYIQSLCQSLRERCPRGDDILTILTEVNYEVSNKDDKKNMGKQMPQPTFTLRKKLVFPSD
notes: procaspase-8 (Casp-8), human, full length with FGLG mutations, catalytic inactivity and processing deficiencies; only the tDED is visible in the cryo-EM maps (protease domain not visible); The methods name E. coli BL21-CodonPlus only for FADD, the Casp-8 tDED mutant and cFLIP tDED; also called Casp-8^tDED molecules C8a, C8b, C8c (triple-FADD complex)
B4: full-length FADD H9G mutant (FADD^FuL_H9G) (natural protein)
chain: MDPFLVLLGSVSSSLSSSELTELKFLCLGRVGKRKLERVQSGLDLFSMLLEQNDLEPGHTELLRELLASLRRHDLLRRVDDFEAGAAAGAAPGEEDLCAAFNVICDNVGKDWRRLARQLKVSDTKIDSIEDRYPRNLTERVRESLRIWKNTEKENATVAHLVGALRSCQMNLVADLVQEVQQARDLQNRSGAMSPMSWNSDASTSEAS
notes: Fas-associated protein with death domain (FADD), human, full length, H9G; only the DED is visible in the crystal structure (FADD DD not visible); A selenomethionine-substituted complex was also made for phasing (PDB 8YD7); also called FADD^DED molecule FAl; source: E. coli BL21-CodonPlus, co-purified in the ternary complex (Ni-NTA, SEC); not shown: 6xHis, C-terminal, kept
B5: wild-type full-length FADD (FADD^FuL) (natural protein, human, UniProt Q13158 1-208, looked up)
chain: MDPFLVLLHSVSSSLSSSELTELKFLCLGRVGKRKLERVQSGLDLFSMLLEQNDLEPGHTELLRELLASLRRHDLLRRVDDFEAGAAAGAAPGEEDLCAAFNVICDNVGKDWRRLARQLKVSDTKIDSIEDRYPRNLTERVRESLRIWKNTEKENATVAHLVGALRSCQMNLVADLVQEVQQARDLQNRSGAMSPMSWNSDASTSEAS
notes: Fas-associated protein with death domain (FADD), human, wild type, full length; only the DED is visible in the cryo-EM maps; also called FA^FuL; WT FADD; source: E. coli BL21-CodonPlus; co-purified in the ternary complex (Ni-NTA, SEC); also in precipitates of overexpressed proteins resuspended in water; not shown: 6xHis, C-terminal, kept

What was measured:
[1] = molecular target: B5; test: negative-stain EM; C8^FGLG purified by SEC, in the presence of WT FADD with a C-terminal His-tag; FADD detected by Ni-NTA Nanogold; SDS-PAGE of the EM sample; settings: both partners purified
cFLIP^tDED H7G mutant = cFLIP^tDED H7G mutant (human, UniProt O15519 1-181, H7G); test: crystal structure; FA^FuL_H9G-C8^FGLG-CF^H7G complex; proteins individually expressed in E. coli, complex co-purified by Ni-NTA and SEC (80 mM NaCl, 20 mM Tris pH 8.0); hanging drop, 20 °C; MR-SAD; 3.1 Å; one 1:5:4 complex per asymmetric unit; FADD DD not visible; settings: both partners purified
[2] = molecular target: B4; test: as above; settings: both partners purified
[3] = molecular target: the molecule itself; test: SEC + other: negative-stain EM; Casp-8^tDED_F122A and CF^H7G co-expressed; SEC profile, negative-stain EM and SDS-PAGE of the peak fractions
[4] = molecular target: the molecule itself; test: cryo-EM structure; FA^FuL-C8^FuL_FGLG_CADA-CF complex; Complex A without cross-linking (7.5 Å) and Complex B stabilised by GraFix, glutaraldehyde (3.7 Å); Casp-8 protease domain and FADD DD not visible
wild-type cFLIP^tDED = wild-type cFLIP^tDED (human, UniProt O15519 1-181); test: as above; settings: both partners purified
[5] = molecular target: B3; test: as above; settings: both partners purified

B1: Casp-8^tDED_F122G/L123G mutant (domain or fragment, human, UniProt Q14790 1-185, looked up)
chain: MDFSRNLYDIGEQLDSEDLASLKFLSLDYIPQRKQEPIKDALMLFQRLQEKRMLEESNLSFLKELLFRINRLDLLITYLNTRKEEMERELQTPGRAQISAYRVMLYQISEEVSRSELRSFKGGLQEEISKCKLDDDMNLLDIFIEMEKRVILGEGKLDILKRVCAQINKSLLKIINDYEEFSKER
notes: procaspase-8 (Casp-8) tandem DED, human, residues 1-185, F122G/L123G (FGLG) in the FL motif of DED2; The methods name no tag for this protein; also called C8^FGLG; source: E. coli BL21-CodonPlus; co-purified in the ternary complex (Ni-NTA, SEC); also purified alone by SEC
- binding result [1]: binds
- binding result (cFLIP^tDED H7G mutant): binds
- binding result [2]: binds

B2: Casp-8^tDED F122A mutant (Casp-8^tDED_F122A) (domain or fragment, human, UniProt Q14790 1-185, looked up)
chain: MDFSRNLYDIGEQLDSEDLASLKFLSLDYIPQRKQEPIKDALMLFQRLQEKRMLEESNLSFLKELLFRINRLDLLITYLNTRKEEMERELQTPGRAQISAYRVMLYQISEEVSRSELRSFKALLQEEISKCKLDDDMNLLDIFIEMEKRVILGEGKLDILKRVCAQINKSLLKIINDYEEFSKER
notes: source: E. coli, co-expressed with CF^H7G, SEC
- binding result [3]: binds

Binder: B3
- stoichiometry N [4]: 3
- binding result (wild-type cFLIP^tDED): binds

Binder: B4
- binding result (cFLIP^tDED H7G mutant): binds

Binder: B5
- binding result [5]: binds
